The subject of series [1] is H2A-H2B heterodimer;yNap1 (Xenopus laevis;Saccharomyces cerevisiae). The series can be described thus: EMSA. For orientation: In EMSA bound probe runs differently from free probe, usually more slowly.
For series [2], the system named is H2A-H2B heterodimer (Xenopus laevis). The series can be described thus: EMSA.
The target in series [3] is yNap1_IF1 (G225D, S237D, T244D, D246R) (Saccharomyces cerevisiae) (UniProt P25293). The series can be described thus: native MS.
The target is the same in series [4]. The series can be described thus: native MS. The source holds these as a separate data set.

One may read the Kd as the equilibrium constant for the complex coming apart. By stoichiometry N is commonly meant a count of units in the complex or per binding partner.

“And” between values parts separate entries of the source, which are not always exact repeats. Equal entries are not always repeated. Where two headings read alike, the source gives them in different places.

With “(H3-H4)2-DNA tetrasome on 147-bp 601 DNA”, the Kd in series [1] worked out at 940 nM; in series [2], 29 nM.
“yNap1_IF1 (G225D, S237D, T244D, D246R) (from UniProt P25293 1-417) (natural protein)”: the stoichiometry N in series [3] is 2 and 4; in series [4] it was 2.

Values taken from publication PMC4931181.
